# Assay results: paper doi:10.1101/2020.07.24.212647 (bioRxiv, 2020)
# Biological target: the molecule itself
# Experiment: crystal structure
protein,measurement,value
M. tuberculosis E2b catalytic domain (MtE2b_CD) (domain or fragment) PDVRPVHGVHARMAEKMTLSHKEIPTAKASVEVICAELLRLRDRFVSAAPEITPFALTLRLLVIALKHNVILNSTWVDSGEGPQVHVHRGVHLGFGAATERGLLVPVVTDAQDKNTRELASRVAELITGAREGTLTPAELRGSTFTVSNFGALGVDDGVPVINHPEAAILGLGAIKPRPVVVGGEVVARPTMTLTCVFDHRVVDGAQVAQFMCELRDLIESPETALLDL,stoichiometry N,24
